Experiment [1] has as its target T1, mouse trkB tyrosine protein kinase gp145^trkB (mouse, UniProt P15209 32-821). Nature of the experiment: cell-based or functional assay.
Experiment [2] concerns the target T2, human trk proto-oncogene product gp140^trk (human, UniProt P04629 33-796). The experiment in a line: cell-based or functional assay.
Experiment [3] addresses T1, mouse trkB tyrosine protein kinase …. The experiment in a line: [125I]-βNGF binding to cells at 4°C.
The target in experiment [4] is T2, human trk proto-oncogene product …. Nature of the experiment: Scatchard analysis, [125I]-βNGF on Sf9 cells infected with pAcS2, low affinity receptors.
Experiment [5] has the same target. Nature of the experiment: Scatchard analysis, [125I]-βNGF on E25-427 cells at 4°C, low affinity receptors.
For experiment [6] the target is unchanged. The experiment in a line: Scatchard analysis, [125I]-βNGF on Sf9 cells infected with pAcS2, high affinity receptors.
Experiment [7] shares this target. The experiment in a line: cell-based or functional assay. The source holds these as a separate data set.
For experiment [8] the target is unchanged. The experiment in a line: Scatchard analysis, [125I]-βNGF on E25-48 cells at 4°C, high affinity receptors.
For experiment [9] the target is unchanged. Nature of the experiment: Scatchard analysis, [125I]-βNGF on E25-427 cells at 4°C, high affinity receptors.
For experiment [10] the target is unchanged. Nature of the experiment: Scatchard analysis, [125I]-βNGF on E25-48 cells at 4°C, low affinity receptors.
Experiment [11] has as its target T3, endogenous trk proto-oncogene product of rat PC12 cells (rat, UniProt P35739 33-799).
T3 construct: whole, on cells; also called PC12 endogenous trk proto-oncogene product; gp140^trk of PC12 cells
Nature of the experiment: Scatchard analysis, [125I]-βNGF on PC12 cells at 4°C, high affinity receptors.

Experiment [12] deals with T4, rat low affinity NGF receptor gp80^LNGFR (rat, UniProt P07174 30-425).
T4 construct: whole, on cells
T4 sequence (looked up): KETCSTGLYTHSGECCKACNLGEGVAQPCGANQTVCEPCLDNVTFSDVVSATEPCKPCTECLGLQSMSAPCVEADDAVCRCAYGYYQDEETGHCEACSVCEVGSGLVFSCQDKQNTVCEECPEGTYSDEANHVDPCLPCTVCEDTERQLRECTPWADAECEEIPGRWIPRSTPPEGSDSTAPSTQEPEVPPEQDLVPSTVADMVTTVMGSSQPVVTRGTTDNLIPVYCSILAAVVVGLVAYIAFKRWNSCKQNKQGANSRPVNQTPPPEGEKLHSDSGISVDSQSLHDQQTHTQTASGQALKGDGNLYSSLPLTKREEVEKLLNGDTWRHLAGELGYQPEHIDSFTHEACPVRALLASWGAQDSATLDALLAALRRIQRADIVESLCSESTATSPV
Nature of the experiment: Scatchard analysis, [125I]-βNGF on PC12 cells at 4°C, low affinity receptors.

For experiment [13], the target named is T1, mouse trkB tyrosine protein kinase …. The experiment in a line: cell-based or functional assay. This is another data set of the same source.
The target in experiment [14] is T2, human trk proto-oncogene product …. The experiment in a line: cell-based or functional assay. This is another data set of the same source.
Experiment [15] has as its target T5, porcine trkC product gp145^trkC (porcine).
T5 construct: Expressed from pFL20 in NIH3T3 cells (R4-31); also called trkC receptor
Nature of the experiment: Scatchard analysis, [125I]-NT-3 on R4-31 cells at 4°C, high affinity sites.

Experiment [16] deals with T5, porcine trkC product gp145^trkC. Nature of the experiment: Scatchard analysis, [125I]-NT-3 on R4-31 cells at 4°C, low affinity sites.
Experiment [17] addresses mutant mouse trkB receptor gp145^trkB/S345 (mouse, UniProt P15209 32-821). The experiment in a line: cell-based or functional assay.
The target in experiment [18] is T2, human trk proto-oncogene product …. The experiment in a line: competition with [125I]-NGF on E25-48 cells.

The text below walks through data of EP0504914A2 (E.R. SQUIBB & SONS, INC., dated 1992).

Bounds are passed on as bounds.

As a reminder, the Kd is the constant that tells how readily two partners part at equilibrium. Read a low Kd as tighter binding.

T2 sequence (P04629 33-796): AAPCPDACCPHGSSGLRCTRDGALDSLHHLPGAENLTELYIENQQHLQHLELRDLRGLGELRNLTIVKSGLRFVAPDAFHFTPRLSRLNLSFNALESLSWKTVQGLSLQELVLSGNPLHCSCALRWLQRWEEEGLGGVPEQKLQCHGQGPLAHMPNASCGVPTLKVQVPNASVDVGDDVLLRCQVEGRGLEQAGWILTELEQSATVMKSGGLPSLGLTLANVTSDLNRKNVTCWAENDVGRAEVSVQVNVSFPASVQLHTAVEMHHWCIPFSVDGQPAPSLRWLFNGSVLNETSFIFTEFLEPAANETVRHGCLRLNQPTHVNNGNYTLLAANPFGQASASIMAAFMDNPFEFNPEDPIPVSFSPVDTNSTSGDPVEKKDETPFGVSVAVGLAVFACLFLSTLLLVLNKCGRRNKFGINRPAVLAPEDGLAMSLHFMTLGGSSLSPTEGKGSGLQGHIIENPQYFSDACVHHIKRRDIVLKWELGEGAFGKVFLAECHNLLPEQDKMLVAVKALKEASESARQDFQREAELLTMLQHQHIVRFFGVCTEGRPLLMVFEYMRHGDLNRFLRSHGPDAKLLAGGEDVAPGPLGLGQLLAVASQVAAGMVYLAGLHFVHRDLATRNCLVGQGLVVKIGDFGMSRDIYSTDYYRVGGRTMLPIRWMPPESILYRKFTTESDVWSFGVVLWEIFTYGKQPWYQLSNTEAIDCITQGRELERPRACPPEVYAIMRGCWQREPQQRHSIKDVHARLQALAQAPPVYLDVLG
T1 sequence (P15209 32-821): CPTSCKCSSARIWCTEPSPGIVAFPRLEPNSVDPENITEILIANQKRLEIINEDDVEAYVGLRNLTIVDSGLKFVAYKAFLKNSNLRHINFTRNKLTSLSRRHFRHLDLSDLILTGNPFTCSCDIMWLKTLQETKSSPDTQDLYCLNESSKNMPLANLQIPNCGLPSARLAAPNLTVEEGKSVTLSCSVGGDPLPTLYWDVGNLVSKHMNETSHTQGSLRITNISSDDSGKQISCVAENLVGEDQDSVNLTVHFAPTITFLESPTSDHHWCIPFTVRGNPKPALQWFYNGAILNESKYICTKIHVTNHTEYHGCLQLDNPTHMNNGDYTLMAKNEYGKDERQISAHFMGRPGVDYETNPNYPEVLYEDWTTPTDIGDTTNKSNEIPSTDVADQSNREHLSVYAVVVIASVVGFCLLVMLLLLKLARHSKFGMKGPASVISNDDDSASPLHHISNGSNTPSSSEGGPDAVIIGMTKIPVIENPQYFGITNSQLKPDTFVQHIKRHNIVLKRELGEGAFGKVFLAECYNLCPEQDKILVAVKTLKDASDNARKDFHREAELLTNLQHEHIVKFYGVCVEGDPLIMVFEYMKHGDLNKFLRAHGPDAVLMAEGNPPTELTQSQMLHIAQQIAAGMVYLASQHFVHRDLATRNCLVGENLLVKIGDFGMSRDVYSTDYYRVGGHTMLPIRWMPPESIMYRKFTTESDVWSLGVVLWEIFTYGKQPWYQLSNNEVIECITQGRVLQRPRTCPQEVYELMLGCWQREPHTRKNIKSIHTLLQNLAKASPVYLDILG
Sequence of mutant mouse trkB receptor gp145^trkB/S345 (P15209 other isoform, or with tags, fused parts or gaps mutant): as the sequence (P15209 32-821) above, with C314S counted along it
T3 sequence (P35739 33-799): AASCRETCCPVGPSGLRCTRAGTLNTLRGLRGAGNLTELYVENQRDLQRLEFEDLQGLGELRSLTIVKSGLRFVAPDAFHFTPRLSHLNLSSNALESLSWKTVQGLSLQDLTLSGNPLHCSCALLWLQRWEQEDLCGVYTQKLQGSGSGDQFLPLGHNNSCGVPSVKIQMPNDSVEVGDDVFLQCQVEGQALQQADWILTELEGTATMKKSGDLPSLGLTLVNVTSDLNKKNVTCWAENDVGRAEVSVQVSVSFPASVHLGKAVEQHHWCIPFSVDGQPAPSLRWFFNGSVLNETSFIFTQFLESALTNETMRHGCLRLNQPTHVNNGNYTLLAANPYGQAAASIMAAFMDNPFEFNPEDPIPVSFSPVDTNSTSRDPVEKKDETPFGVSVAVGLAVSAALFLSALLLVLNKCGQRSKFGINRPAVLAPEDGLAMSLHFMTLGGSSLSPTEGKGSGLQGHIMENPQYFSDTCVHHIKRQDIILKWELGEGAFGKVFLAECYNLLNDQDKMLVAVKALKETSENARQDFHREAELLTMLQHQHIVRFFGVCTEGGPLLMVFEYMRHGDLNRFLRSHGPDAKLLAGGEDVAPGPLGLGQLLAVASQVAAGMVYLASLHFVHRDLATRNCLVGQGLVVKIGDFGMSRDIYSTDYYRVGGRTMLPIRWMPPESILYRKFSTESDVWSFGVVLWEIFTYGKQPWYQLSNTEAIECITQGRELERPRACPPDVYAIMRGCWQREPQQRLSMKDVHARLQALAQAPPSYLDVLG

B1: murine 2.5S NGF (βNGF) (ligand, UniProt P01139 122-241, looked up)
chain: SSTHPVFHMGEFSVCDSVSVWVGDKTTATDIKGKEVTVLAEVNINNSVFRQYFFETKCRASNPVESGCRGIDSKHWNSYCTTTHTFVKALTTDEKQAAWRFIRIDTACVCVLSRKATRRG
modifications: 125I label where used as tracer
notes: mature; The background says that βNGF exists as a 26,000 d homodimer; also called [125I]-labeled βNGF; [125I]-NGF
Turning to B1, the “transforming activity of neurotrophic factor DNA in the presence of trkB DNA” value (“transforming activity … of trkB DNA” below) in experiment [1] is < 1 ffu per µg of DNA. Besides, in [2], the “transforming activity of neurotrophic factor DNA in the presence of trk DNA” value (“transforming activity … of trk DNA” for short) is 20000 ffu per µg of DNA. In addition, in experiment [3], the binding result is listed as “no binding (tested: 1 nM)”. Moreover, the equilibrium dissociation constant (Kd) in experiment [4] was 13.7 nM; in experiment [5] it was 7 nM; in [6], 0.42 nM; in experiment [8], 0.09 nM; in experiment [9], 0.12 nM; in [10], 2.4 nM. Further, the equilibrium dissociation constant (Kd) in experiment [11] stood at 0.3 nM; in experiment [12], 33.2 nM. In experiment [7], the “NGF stimulation of agar colonies, 10^3 E25-48 cells” value was determined as 9 fold. Moreover, the “NGF stimulation of agar colonies, 10^4 E25-48 cells” value in experiment [7] was found to be 7 fold.

B2: Xenopus laevis neurotrophin-4 (XNT-4) (ligand, UniProt P24727 114-236, looked up)
chain: ASGSDSVSLSRRGELSVCDSVNVWVTDKRTAVDDRGKIVTVMSEIQTLTGPLKQYFFETKCNPSGSTTRGCRGVDKKQWISECKAKQSYVRALTIDANKLVGWRWIRIDTACVCTLLSRTGRT
In the case of B2, the “transforming activity with gp145^trkB, against BDNF” value in experiment [13] turned out to be 5 fold lower than BDNF.

B3: human neurotrophin-3 (NT-3) (ligand, UniProt P20783 139-257, looked up)
chain: YAEHKSHRGEYSVCDSESLWVTDKSSAIDIRGHQVTVLGEIKTGNSPVKQYFYETRCKEARPVKNGCRGIDDKHWNSQCKTSQTYVRALTSENNKLVGWRWIRIDTSCVCALSRKIGRT
modifications: 125I (Bolton-Hunter) where used as tracer
notes: mature; also called [125I]-labeled NT-3
In the case of B3, the “transforming activity … of trkB DNA” value in [1] is 100 ffu per µg of DNA. In experiment [2], the “transforming activity … of trk DNA” value was 300 ffu per µg of DNA. For the same molecule, the “transformation efficiency with pFRK44, against BDNF” value in experiment [13] is 500 fold lower. Further, the “efficiency in transformation assays with pDM69, against NGF” value in experiment [14] is 200 fold less efficient than NGF. Moreover, the Kd was 0.026 nM in experiment [15] and 4 nM in experiment [16].

B4: human brain-derived neurotrophic factor (BDNF) (ligand, UniProt P23560 129-247, looked up)
chain: HSDPARRGELSVCDSISEWVTAADKKTAVDMSGGTVTVLEKVPVSKGQLKQYFYETKCNPMGYTKEGCRGIDKRHWNSQCRTTQSYVRALTMDSKKRIGWRFIRIDTSCVCTLTIKRGR
modifications: 125I (Bolton-Hunter) where used as tracer in Example 5
notes: mature; also called [125I]-BDNF
Consider B4, for which the “transforming activity … of trkB DNA” value in experiment [1] is 40000 ffu per µg of DNA. Further, the “transforming activity … of trk DNA” value in experiment [2] was < 1 ffu per µg of DNA. The “efficiency in mediating the response to BDNF, against wild type gp145^trkB” value in experiment [17] is ~10 fold less efficient than wild type. For the same molecule, the binding result in experiment [18] is reported as “no binding (tested: 500 ng/ml)”.
